{"source": "patent US20130149320A1", "about": "(CENTRE NATIONAL DE LA RECHERCHE SCIENTIFIQUE, published 2013)", "molecular_target": "T1, Asf1 from Xenopus laevis (endogenous, high speed egg extract) (Xenopus laevis, UniProt Q69DB9 1-201, limits assumed)", "T1 construct": "also called Asf1 from X. laevis", "assay": "GST pull-down on Xenopus egg extract (HSE), Western blot", "procedure": "FIG. 22. Inhibition of chromatin assembly with the B-domain of HIRA. FIG. 22A Binding of the wild-type but not the mutated form (I461D) of the B-domain of HIRA to Asf1. GST pull-down was performed on HSE extracts with […] of recombinant GST B-domain of HIRA proteins on beads. Input and flowthrough are 10% of the immunoprecipitated material. […] FIG. 22B The B-domain of HIRA inhibits nucleosome assembly independent of replication. In vitro nucleosome assembly reactions independent of DNA synthesis were performed with increasing amounts (2, 4 or 8 mg) of the recombinant GST HIRA B-domain or its mutated form (I461D) added directly into the nucleosome assembly reaction mix. The purified plasmid DNA was analyzed by agarose elecrophoresis and was visualized by staining with ethidium bromide (EtBr). The migration positions of DNA plasmid form 1 (supercoiled), form 11 (nicked circular) and lr (closed circular) are indicated.\nGST pull-downs were performed by mixing […] of High speed xenopus egg extract (HSE prepared as described in (Almouzni, 1998)), 1X nucleosome assembly buffer, 300 ng p^{bluescript}, 4 mM ATP, […] creatine kinase and 3 mg of recombinant protein on beads during 3 h at 23° C. The flow through was recovered and beads were washed 3 times with PBS supplemented with 150 mM NaCl and 0,5% NP40. Different fractions were loaded on a NuPAGE 4-12% (Invitrogen) and ran in MES buffer. […]", "note": "Ends that are not written are not given here.", "data": [{"binder": "GESLEDIRKNLLKKQVETRTADGRRRDTPLCIAQLDTGDFSTAFFN (other, not shown: a dimerising Fc or GST; small tags and cut ends, also: GST fusion tag, sequence not given here, also called mutated GST-B-domain I461D; mutated form (I461D) of the B-domain of HIRA)", "note": "[recombinant GST HIRA B-domain I461D (mutated Xenopus laevis HIRA B-domain, aa 435-480)]", "values": [{"measurement": "binding result", "result": "no binding (tested: 3 mg of recombinant protein on beads)"}]}]}
